The values that follow come from patent US9234036B2, “Modulation of activity of proneurotrophins” (H. Lundbeck A/S, priority 2006, dated 2016).

“Also recorded” adds a separate entry of the source. Where no end group is shown, it is not given here.

Assay [1] deals with T1, GST-pro-dom-NGF (Homo sapiens, UniProt P01138, A35V).
T1 construct: previously described GST-NGF-pro-domain fusion protein (Nykjaer et al., Nature 2004)
T1 sequence (P01138 19-121 A35V): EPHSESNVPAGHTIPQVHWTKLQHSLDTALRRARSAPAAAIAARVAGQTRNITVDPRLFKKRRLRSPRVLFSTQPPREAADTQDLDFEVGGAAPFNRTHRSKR
Kind of assay: SPR binding of GST-pro-dom-NGF to immobilized sortilin site-directed mutants. As for the experimental part:
Site-directed mutagenesis was performed for all important residues within the peptide sequence as identified by the substitution analysis in the SPOT method, using the pCepPU expression vector for sortilin as template. The thereby generated mutant constructs were used together with HEK293 cells to produce single residue mutants of the his-tagged sortilin luminal domain, to obtain the proteins R163A, F165A, R166A, F170A, K172A, and F174A numbered according to pro-Sortilin as specified in the sequence overview. As a control protein, the mutant R160A located N-terminally to the recognition sequence, was produced in order to have a protein with unaltered affinity for the NGF-prodomain.
After purification by standard Ni^2+-NTA chromatography, each sortilin mutant was immobilized to a similar surface density on Biacore CM5 chips. Binding was tested using concentration series of the previously described GST-NGF-pro-domain fusion protein (Nykjaer et al., Nature 2004), which is able to render a higher response using the SPR system at low concentration. Thus concentration series of 10, 20, 30, 40, and 50 nM GST-prodomain of NGF was applied to each chip surface, and data was fitted to a 1:1 binding model using the standard BIAevaluation software.
This model is further supported by the previous data in the substitution analysis, where a stronger effect upon mutation was observed when using peptides containing only one of the binding motives, as compared to mutants spanning both motives. Accordingly, it was decided to “remove” an entire motif before substitution within the second motif and to be able to observe how that would influence binding of the ligand. A sortilin variant was produced containing quadruple substitutions (R163A, F165A, R166A, and […] F170A) in a similar procedure using HEK293 cells as applied for single residue mutants.
To determine ligand binding capacity, quatro protein was coupled in parallel to the wild-type sortilin on a new Biacore chip, and binding of GST-pro-NGF was measured in a manner similar to the analysis of single residue mutants (FIG. 21).

For assay [2], the target named is T2, pro-dom-BDNF (Homo sapiens, UniProt P23560).
T2 construct: pro-dom-BDNF (residues Ala^1-Arg^110); made in house; host or cells: E. coli BL21/DE3
T2 sequence (P23560 19-128 limits assumed): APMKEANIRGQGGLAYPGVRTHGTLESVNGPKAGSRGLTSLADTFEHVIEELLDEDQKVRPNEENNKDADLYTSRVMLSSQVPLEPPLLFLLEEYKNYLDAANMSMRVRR
Kind of assay: SPOT analysis of pro-dom-BDNF binding to cellulose-bound sortilin peptides. The conditions noted are these: HRP-S-protein detection where stated. An excerpt:
(§1) Peptide libraries were generated for all members of the Vps10p-domain receptor gene family or specific peptide variations in terms of substitution or length of identified Sortilin binding peptides. A total of 2181 peptides was used for representation of the Sortilin gene family, corresponding to 273 peptides for Sortilin (accession code: CAA66904), 734 peptides for SorLA (accession code: NP_003096), 389 peptides for SorCS1 (accession code: NP_001013049), 382 peptides for sorCS2 (accession code: Q96PQ0), and 403 peptides for SorCS3 (accession code: CAI64579), with a 13 amino acid overlap between 16-mers.
(§2) A cellulose support is prepared as a N-modified cellulose-amino-hydroxylpropyl ether membrane, and all rounds of synthesis starts with SPOT definition by 9-fluorenyl-methoxycarbonyl-β-alanine-pentafluoophenyl ester that creates an alanine linker between peptide and membrane. Then followed an automated linear synthesis of stepwise addition of the different amino acids protected at their amino terminal by 9-fluorenyl-methoxycarbonyl and appropriate side chain protection for the growing peptide chain. The pattern of deprotection, activation, and coupling continued until 16-mer peptides were produced, resulting in an equally distributed array of covalently anchored peptides to the cellulose support at their C-terminal and an N-terminal free end.
(§3) The membrane-bound libraries were incubated with a combined S-peptide and poly-histidine-tagged pro-domains (10 ug/mL) in blocking buffer over night at 4 C, followed by a second incubation with 1 ug/mL of HRP-conjugated S-protein from Novagen (cat. no. 69047-3) also in blocking buffer but for 3 h at room temperature. Subsequently, the membrane was washed three times for 10 min with TBS before quantitative characterization of bound ligand was carried out using the UptiLight chemoluminescence substrate from Uptima (cat. no. UP99619A) and the Lumilmager instrument from Roche Diagnostics, providing the SPOT signal intensities in Boehringer Light Units (BLUs). […]

In assay [3] the target is T3, pro-dom-NGF (Homo sapiens, UniProt P01138, A35V).
T3 construct: pro-dom-NGF (residues Glu^1-Arg^102); made in house; host or cells: E. coli BL21/DE3
T3 sequence (P01138 19-121 A35V): T1 sequence (P01138 19-121 A35V)
The experiment in a line: SPOT analysis of pro-dom-NGF binding to cellulose-bound sortilin peptides. The conditions noted are these: HRP-S-protein detection where stated.
Excerpt: as §1, §2, §3

For assay [4], the target named is T4, proNGF binding to immobilized Sortilin (Homo sapiens, UniProt Q99523).
T4 construct: 51 fmol/mm^2 purified Sortilin extracellular domain; made in house; host or cells: Sortilin: stably transfected CHO cells; proNGF: E. coli
T4 sequence (Q99523 78-755 limits assumed): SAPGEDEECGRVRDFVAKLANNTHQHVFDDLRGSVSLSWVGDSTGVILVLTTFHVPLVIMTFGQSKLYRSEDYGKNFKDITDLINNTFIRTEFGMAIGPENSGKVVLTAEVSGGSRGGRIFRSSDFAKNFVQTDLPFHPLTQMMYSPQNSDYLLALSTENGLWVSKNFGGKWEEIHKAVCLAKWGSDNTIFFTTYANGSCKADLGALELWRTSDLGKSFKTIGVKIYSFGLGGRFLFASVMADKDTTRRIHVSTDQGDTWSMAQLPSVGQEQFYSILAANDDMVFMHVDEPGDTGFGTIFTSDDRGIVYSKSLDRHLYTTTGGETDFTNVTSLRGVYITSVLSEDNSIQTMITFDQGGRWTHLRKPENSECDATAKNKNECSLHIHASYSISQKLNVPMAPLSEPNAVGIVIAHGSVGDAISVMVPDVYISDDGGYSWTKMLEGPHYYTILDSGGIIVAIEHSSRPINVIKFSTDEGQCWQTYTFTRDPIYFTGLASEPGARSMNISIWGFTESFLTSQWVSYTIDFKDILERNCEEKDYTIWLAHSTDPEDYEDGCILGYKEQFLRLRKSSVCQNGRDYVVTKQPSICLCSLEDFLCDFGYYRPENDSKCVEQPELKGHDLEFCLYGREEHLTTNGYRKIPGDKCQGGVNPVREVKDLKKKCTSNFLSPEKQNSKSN
The experiment in a line: Inhibition of proNGF binding to immobilized Sortilin (Biacore). The conditions noted are these: then coinjection, 51 fmol/mm^2 Sortilin (FIG. 6).

The mark [5] stands for this setting: GST-pro-dom-NGF at 10-50 nM, 1:1 binding model.

For the molecule “F165A: single residue mutant of his-tagged sortilin luminal domain; SEQ ID NO 52 (RGGRIARSSDFAKNF; not fully specified)”, in assay [1] (setting [5]), the Kd worked out at 3.86 nM, the ka is listed as 1.10 × 10^5 and the kd is listed as 4.22 × 10^−4.

Consider “F170A: single residue mutant of his-tagged sortilin luminal domain; SEQ ID NO 54 (RGGRIFRSSDAAKNF; not fully specified)”, for which, in assay [1] (setting [5]), the equilibrium dissociation constant (Kd) was determined as 5.59 nM, the ka is 1.30 × 10^5 and the kd is given as 5.91 × 10^−4.

Regarding “F174A: single residue mutant of his-tagged sortilin luminal domain; SEQ ID NO 56 (RGGRIFRSSDFAKNA; not fully specified)”, in assay [1] (setting [5]), the Kd worked out at 4.27 nM, the ka is 2.35 × 10^5 and the kd is 1.03 × 10^−3.

As for FAKNFVQTD (listed as Homo Sapiens), in assay [2], the “pro-dom-BDNF binding in SPOT analysis” value is on record as “efficient binding”. Besides, the “pro-dom-NGF binding in SPOT analysis” value in assay [3] is on record as “efficient binding”.

For the molecule “K172A: single residue mutant of his-tagged sortilin luminal domain; SEQ ID NO 55 (RGGRIFRSSDFAANF; not fully specified)”, in assay [1] (setting [5]), binding was put at a Kd of 3.91 nM, the ka is listed as 1.01 × 10^5 and the kd was 3.46 × 10^−4.

Regarding “R160A: single residue mutant of his-tagged sortilin luminal domain, control; SEQ ID NO 50 (AGGRIFRSSDFAKNF; not fully specified)”, in assay [1] (setting [5]), the Kd turned out to be 1.89 nM, the ka is given as 1.47 × 10^5 and the kd is listed as 2.27 × 10^−4.

For the molecule “R163A: single residue mutant of his-tagged sortilin luminal domain; SEQ ID NO 51 (RGGAIFRSSDFAKNF; not fully specified)”, in assay [1] (setting [5]), the Kd was 2.7 nM, the ka is given as 1.85 × 10^5 and the kd is 4.21 × 10^−4.

On to “R166A: single residue mutant of his-tagged sortilin luminal domain; SEQ ID NO 53 (RGGRIFASSDFAKNF; not fully specified)”, for which, in assay [1] (setting [5]), the affinity, expressed as Kd, was 4.38 nM; the ka is reported as 6.48 × 10^4; the kd is recorded as 2.85 × 10^−4.

“RIFR: 4-mer sortilin peptide, SEQ ID NO:25 residues 7-10 (listed as Homo Sapiens)”: the “pro-dom-BDNF binding in SPOT analysis” value in assay [2] is “binds very strongly”. In addition, in assay [3], the “pro-dom-NGF binding in SPOT analysis” value was “binds very strongly”.

Regarding RIFRSSDF (listed as Homo Sapiens), the “pro-dom-BDNF binding in SPOT analysis” value in assay [2] is on record as “efficient binding”. In addition, in assay [3], the “pro-dom-NGF binding in SPOT analysis” value was “efficient binding”.

“Sortilin propeptide: propeptide of the Sortilin receptor (QDRLDAPPPPAAPLPRWSGPIGVSWGLRAAAAGGAFPRGGRWRR)”: the “inhibition of binding of 200 nM proNGF to immobilized Sortilin” value in assay [4] (5 μM inhibitor prebound) was approximately 65%.

“quatro: sortilin variant with quadruple substitutions R163A, F165A, R166A, F170A; SEQ ID NO 57 (RGGAIAASSDAAKNF; not fully specified)”: the “binding of GST-pro-dom-NGF compared with sortilin wt” value in assay [1] (50 nM GST-pro-dom-NGF, FIG. 22) is given as “severely affected; also recorded: strongly reduced affinity”. Also, the KD entry in assay [1] (setting [5]) is on record as “no binding”.

B1: RAP: receptor-associated protein, SEQ ID NO 12 (protein, listed as Homo Sapiens)
chain: MAPRRVRSFLRGLPALLLLLLFLGPWPAASHGGKYSREKNQPKPSPKRESGEEFRMEKLNQLWEKAQRLHLPPVRLAELHADLKIQERDELAWKKLKLDGLDEDGEKEARLIRNLNVILAKYGLDGKKDARQVTSNSLSGTQEDGLDDPRLEKLWHKAKTSGKFSGEELDKLWREFLHHKEKVHEYNVLLETLSRTEEIHENVISPSDLSDIKGSVLHSRHTELKEKLRSINQGLDRLRRVSHQGYSTEAEFEEPRVIDLWDLAQSANLTDKELEAFREELKHFEAKIEKHNHYQKQLEIAHEKLRHAESVGDGERVSRSREKHALLEGRTKELGYTVKKHLQDLSGRISRARHNEL
Turning to B1, in assay [4] (10 μM inhibitor prebound), the “inhibition of binding of 200 nM proNGF to immobilized Sortilin” value is approximately 65%.
